Results published in the supplement of paper PMC9732359.
± gives the uncertainty stated by the source.

Assay: protein stability index of a GFP-peptide fusion (yeast GPS) (PSI 1-4); higher = more stable; sorted into four equal gates, so the index is relative within each strain
Method in brief: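 For each peptide, the protein stability index sums the read frequency in every gate after multiplying it by the gate number. Read frequencies came from plasmids that were PCR-amplified from each gate and Illumina-sequenced, with reads assigned to strains by barcodes. The gates were four equal bins of GFP/Cherry fluorescence ratio applied to mid-log yeast in leucine-free medium carrying a pooled library of tiled 17-residue yeast protein peptides fused downstream of GFP on a Cherry-expressing plasmid.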

Sequence | protein stability index (doa10∆) | protein stability index (pdr5∆) | protein stability index (san1∆) | protein stability index (ubr1∆)
VLKCLKSLESQRYVKSV [RPC34] | 1.72 ± 0.059 | 1.94 ± 0.054 | 1.99 ± 0.1 | 1.91 ± 0.07
PKVPEDIYKSHLDNSKS [RPN1] | 3.1 ± 0.12 | 2.98 ± 0.12 | 2.93 ± 0.1 | 3.24 ± 0.17
NTTTRVIPQVEVGNRKH [SNF5] | 2.21 ± 0.2 | 2.46 ± 0.095 | 2.35 ± 0.17 | 2.62 ± 0.094
SSTKPPGSVNSAAKYKD [NUT1] | 2.68 ± 0.064 | 2.64 ± 0.061 | 2.53 ± 0.1 | 2.93 ± 0.065
SNIPRGSVIQTHIAESA [MCD1] | 2.81 ± 0.1 | 2.88 ± 0.084 | 2.62 ± 0.09 | 2.91 ± 0.051
DFIGHNSNINTLTASPD [ASC1] | 2.83 ± 0.075 | 2.87 ± 0.052 | 2.87 ± 0.068 | 2.96 ± 0.039
QADLQAMDRAHRIGQKK [ISW2] | – | – | 3.14 ± 0.23 | –
IWLRKTSQMDLARDTPS [RRP4] | 1.61 ± 0.041 | 1.98 ± 0.051 | 1.54 ± 0.097 | 1.5 ± 0.044
GYGSNKKTKFLSPSGHK [RPL32] | 2.4 ± 0.081 | 2.64 ± 0.09 | 2.62 ± 0.14 | 1.63 ± 0.092
IILKTRQINKLIDSLPG [SRB7] | 2.31 ± 0.071 | 2.11 ± 0.047 | 2.62 ± 0.067 | 2.51 ± 0.058
VFSALKNLISRINTLPQ [ECM29] | 3.06 ± 0.12 | 2.36 ± 0.091 | 1.76 ± 0.22 | 2.71 ± 0.051
TQDDFTTSVDVMLKGIV [SRP54] | 1.63 ± 0.1 | 2.23 ± 0.081 | 1.67 ± 0.12 | 1.51 ± 0.047
YSEEPREKVRKLSQYVQ [FAS2] | – | – | – | 3.16 ± 0.26
TVENPLRNWEELNIIPR [PRP28] | 1.49 ± 0.041 | 1.9 ± 0.054 | 1.48 ± 0.086 | 1.77 ± 0.046
IKSKADAWVSAAHYNRE [PRP8] | 1.79 ± 0.078 | 1.48 ± 0.065 | 2.6 ± 0.06 | 1.7 ± 0.11
QSEDLSHAVEFFMSERS [YML103C/NUP188] | 3.29 ± 0.077 | 3.37 ± 0.089 | 3.25 ± 0.066 | 3.18 ± 0.059
DPKRLFEGNALIRRLVR [RPS9A] | – | 3.52 ± 0.28 | – | –
VSSLPGSTDKSLDFLNQ [COR1] | 3.45 ± 0.18 | – | 3.02 ± 0.28 | –
SATFLRIVGSELIQKYL [RPT2] | 1.41 ± 0.066 | 1.46 ± 0.071 | 1.18 ± 0.13 | 1.28 ± 0.051
VMNTKLLQEGGSLSGNS [ESC2] | 3.27 ± 0.14 | 3.44 ± 0.14 | 3.13 ± 0.099 | 3.07 ± 0.19
TNVYSKDLVIVSNLMGR [RPB3] | 3.04 ± 0.073 | 2.97 ± 0.059 | 2.96 ± 0.051 | 2.79 ± 0.04
APSIGRWYQLIATGCKD [YGL100W/SEH1] | 1.52 ± 0.089 | 1.65 ± 0.068 | 1.64 ± 0.11 | 2.17 ± 0.071
IIGTFSDSYKVSLQNFS [RRP40] | 2.11 ± 0.099 | 1.79 ± 0.079 | 2.24 ± 0.11 | 1.96 ± 0.054
NNTLSRYADAGNIDTKN [RRP43] | 3.35 ± 0.064 | 3.21 ± 0.058 | 3.28 ± 0.041 | 3.5 ± 0.054
WTMRIEGRLLDNVQAND [SNF12] | 2.48 ± 0.09 | 2.96 ± 0.096 | 2.7 ± 0.065 | 2.93 ± 0.047
LDPLEVHMLDFPNIAIR [PRP8] | 2.74 ± 0.059 | 2.79 ± 0.056 | 2.84 ± 0.051 | 2.88 ± 0.043
EKDAKINKLMEKDFQVN [SIR4] | 3.22 ± 0.067 | 3.44 ± 0.07 | 3.3 ± 0.07 | 3.47 ± 0.055
KETIARVTGGMKVKADR [RPS14A] | 3.29 ± 0.11 | 3.13 ± 0.12 | 3.31 ± 0.062 | 3.27 ± 0.073
DRLILDLKLPPMDAYLK [SNU114] | 3.5 ± 0.14 | 3.34 ± 0.11 | 3.01 ± 0.063 | 3.17 ± 0.063
